Test results taken from publication PMC6041754 (Journal of Molecular Cell Biology, 2017).

Assays:
Ran^Δ181–216 = Ran^Δ181–216 (human, UniProt P62826 1-180); assay: NMR
[1] = biological target: Ran (full-length, His6-tagged, from pET22b) (human, UniProt P62826 1-216); assay: SPR

Binder | binding result (Ran^Δ181–216) | fold reduction of binding affinity against wild-type Mog1 [1] [fold]
Mog1 without a tag (co-expressed with Ran from pRSFDuet-1) (natural protein, isotope labels (2H, 15N, ILV methyl 13CH3) as the sample required) MEPTRDCPLFGGAFSAILPMGAIDVSDLRPVPDNQEVFCHPVTDQSLIVELLELQAHVRGEAAARYHFEDVGGVQGARAVHVESVQPLSLENLALRGRCQEAWVLSGKQQIAKENQQVAKDVTLHQALLRLPQYQTDLLLTFNQPPPDNRSSLGPENLSPAPWSLGDFEQLVTSLTLHDPNIFGPQ | binds | –
Mog1^E50K,E53K (natural protein) MEPTRDCPLFGGAFSAILPMGAIDVSDLRPVPDNQEVFCHPVTDQSLIVKLLKLQAHVRGEAAARYHFEDVGGVQGARAVHVESVQPLSLENLALRGRCQEAWVLSGKQQIAKENQQVAKDVTLHQALLRLPQYQTDLLLTFNQPPPDNRSSLGPENLSPAPWSLGDFEQLVTSLTLHDPNIFGPQ | – | ~100
